Experiment [1] addresses T1, soluble human ILT2-ECD (human, UniProt Q8NHL6 24-461).
T1 construct: also called LILRB1 extracellular domain
Kind of experiment: SPR (Biacore) as described in Example 3. As to the method: (§1) The binding affinities of anti-ILT2 and anti-ILT4 antibodies were measured using a Biacore system (GE Healthcare LifeSciences). Equilibrium dissociation constant (KD) measurements were carried out with purified antibodies to evaluate their binding to human ILT2, human ILT4, and rhesus ILT2. Briefly, purified anti-ILT2 antibody 27F9, anti-ILT4 antibodies 47C8 and 48A5, and anti-ILT2/ILT4 antibodies 47H6, 51A1, 64A12, 73C4, and 73D1 were captured on a Sensor Chip Protein A (GE HealthCare). The surface of the Biacore Sensor Chip Protein A consists of a carboxymethylated dextran matrix with a recombinant Protein A variant covalently attached. Soluble human ILT2-ECD, human ILT4-ECD, or rhesus ILT2-ECD were injected at a flow rate of 30 μL/min at 25° C. The ILT2 or ILT4 proteins were used at concentrations ranging from 1.6-200 nM in PBS-P buffer with 2 fold dilutions. Kinetic data were collected over time and fit using the simultaneous global fit equation to yield affinity constants (KD values) for each antibody.
(§2) The binding affinities of the humanized antibodies to human ILT2 and human ILT4 were measured using a Biacore system as described herein. The binding affinities of antibodies Hz47H6.v2, Hz64A12, and Hz73D1.v1 are shown in Table 11 as compared with the parental antibodies.
(In general: Surface plasmon resonance follows binding to a sensor surface in real time, without labels.)

Experiment [2] concerns the target T2, soluble human ILT4-ECD (human, UniProt Q8N423 22-460).
T2 construct: also called LILRB2 extracellular domain
Put plainly: SPR (Biacore) as described in Example 3. As for the experimental part:
as §1, §2

Experiment [3] deals with T1, soluble human ILT2-ECD. Put plainly: SPR (Biacore) as described in Example 3, low resolution parameters. As for the experimental part:
as §1, §2

Experiment [4] addresses T2, soluble human ILT4-ECD. Described as above. As to the method:
as §1, §2

In experiment [5] the target is T1, soluble human ILT2-ECD. Kind of experiment: SPR (Biacore), antibody captured on Protein A chip, soluble ILT-ECD injected (1.6-200 nM), 25 C. As to the method: as §1
Experiment [6] has as its target T2, soluble human ILT4-ECD. The description is as above. As for the experimental part:
as §1

Experiment [7] addresses T1, soluble human ILT2-ECD. Put plainly: SPR (Biacore), antibody captured on Protein A chip, soluble ILT-ECD injected, 25 C, low resolution parameters. As to the method: as §1
Experiment [8] concerns the target T2, soluble human ILT4-ECD. Described as above. As to the method:
as §1

The target in experiment [9] is T3, cynomolgus monkey ILT2 on cells (cynomolgus monkey).
T3 construct: also called cyno ILT2; ILT2 on cyno CD14+ monocytes
T3 sequence (chain, as listed by the source): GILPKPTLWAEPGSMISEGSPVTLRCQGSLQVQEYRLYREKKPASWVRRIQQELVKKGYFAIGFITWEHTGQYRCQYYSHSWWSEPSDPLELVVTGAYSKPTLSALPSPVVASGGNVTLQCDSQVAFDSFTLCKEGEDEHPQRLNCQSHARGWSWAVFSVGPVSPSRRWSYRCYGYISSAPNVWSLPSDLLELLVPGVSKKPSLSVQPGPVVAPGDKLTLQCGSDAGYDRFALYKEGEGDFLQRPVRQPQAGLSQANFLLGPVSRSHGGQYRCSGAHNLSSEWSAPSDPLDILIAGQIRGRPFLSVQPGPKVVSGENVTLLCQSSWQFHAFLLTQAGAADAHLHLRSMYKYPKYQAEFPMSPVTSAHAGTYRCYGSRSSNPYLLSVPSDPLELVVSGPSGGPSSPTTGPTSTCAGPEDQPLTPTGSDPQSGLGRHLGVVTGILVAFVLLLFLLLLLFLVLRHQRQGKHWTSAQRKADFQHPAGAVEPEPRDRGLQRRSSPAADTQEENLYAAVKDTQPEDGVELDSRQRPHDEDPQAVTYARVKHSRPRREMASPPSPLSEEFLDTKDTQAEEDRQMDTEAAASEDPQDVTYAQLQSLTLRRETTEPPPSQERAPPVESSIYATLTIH
Kind of experiment: flow cytometry, fluorescently labelled antibody on CD14+ monocytes of cyno PBMC, donor Cyno 1, geometric MFI. As to the method:
(§3) The binding of anti-ILT2/ILT4 antibodies to monocytes was evaluated. The binding of exemplary anti-ILT2/ILT4 antibody 73D1 and the humanized version Hz73D1.v1 to the CD14+ monocyte population of human and cyno PBMC were determined by flow cytometry analysis. Briefly, human or cyno PBMCs (from 2 donors each) were thawed, washed in media (RPMI, 10% FBS, L-glutamine, pen/strep), and resuspended in fresh media. PBMCs were stained with a cocktail of labeled antibodies to differentiate between the different cell types. 1×10⁶ cells/well were stained with fluorescently-labelled 73D1 or Hz73D1.v1 antibody and incubated on ice. The cells were washed with ice-cold reagents and immediately analyzed by flow cytometry. The geometric mean fluorescence intensity for CD14+ monocytes was calculated for each sample. […] For example, the 50% effective concentration (EC₅₀) of Hz73D1.v1 was 8.8 nM with human monocytes and 1.8 nM with cyno monocytes.
(In general: In flow cytometry, cells or beads pass a laser one at a time.)

The target in experiment [10] is T3, cynomolgus monkey ILT2 on cells. Kind of experiment: flow cytometry, fluorescently labelled antibody on CD14+ monocytes of cyno PBMC, donor Cyno 2, geometric MFI. As for the experimental part: as §3
In a further experiment the target is T4, human ILT4 on cells (human, UniProt Q8N423 22-597).
T4 construct: also called LILRB2; human ILT4 expressed on 293T cells
T4 sequence (Q8N423 other isoform, or with tags, fused parts or gaps): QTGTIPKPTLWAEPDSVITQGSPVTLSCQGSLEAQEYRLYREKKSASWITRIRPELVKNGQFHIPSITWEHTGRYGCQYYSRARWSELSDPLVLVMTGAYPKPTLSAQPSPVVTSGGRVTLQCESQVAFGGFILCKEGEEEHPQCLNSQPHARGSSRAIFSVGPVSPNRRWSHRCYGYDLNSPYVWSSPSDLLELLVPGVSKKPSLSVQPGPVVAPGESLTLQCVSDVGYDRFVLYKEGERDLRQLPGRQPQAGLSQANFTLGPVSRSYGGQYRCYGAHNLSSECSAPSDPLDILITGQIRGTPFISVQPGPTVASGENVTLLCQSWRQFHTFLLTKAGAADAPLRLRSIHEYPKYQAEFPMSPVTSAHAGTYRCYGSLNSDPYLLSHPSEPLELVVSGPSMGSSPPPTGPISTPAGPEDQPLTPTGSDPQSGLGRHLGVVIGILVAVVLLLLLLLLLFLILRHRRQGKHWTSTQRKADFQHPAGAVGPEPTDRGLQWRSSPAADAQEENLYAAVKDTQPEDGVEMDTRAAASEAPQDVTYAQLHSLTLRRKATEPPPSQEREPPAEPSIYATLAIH
Kind of experiment: flow cytometry, fluorescently labelled antibody on immune cell subsets of PBMC / red-cell-depleted whole blood. As to the method: Flow cytometry analysis of blood immune cells was performed on human and cyno PBMC and whole blood. PBMC were prepared from a leukopak (Allcells Inc.) by centrifugation through ficoll, washing with PBS and freezing in cryopreservation buffer in liquid nitrogen until use. Whole blood (Allcells Inc.) was obtained fresh and red blood cells (RBC) depleted using ammonium chloride RBC lysing solution (Biolegend). PBMC or whole blood samples were stained with a fluorescently labeled antibody panel to distinguish various immune subsets (monocytes, B cells, NK cells, CD4+ and CD8+ T cells, neutrophils and eosinophils). Samples were further stained with fluorescently labeled isotype, 27F9 (ILT2 specific), 48A5 (ILT4 specific), 73D1, and Hz73D1.v1. The number of ILT2 and ILT4 molecules per cell of each immune subset was estimated by incubation with Quantum Simply Cellular microspheres followed by flow cytometry analysis.

T2 sequence (Q8N423 other isoform, or with tags, fused parts or gaps): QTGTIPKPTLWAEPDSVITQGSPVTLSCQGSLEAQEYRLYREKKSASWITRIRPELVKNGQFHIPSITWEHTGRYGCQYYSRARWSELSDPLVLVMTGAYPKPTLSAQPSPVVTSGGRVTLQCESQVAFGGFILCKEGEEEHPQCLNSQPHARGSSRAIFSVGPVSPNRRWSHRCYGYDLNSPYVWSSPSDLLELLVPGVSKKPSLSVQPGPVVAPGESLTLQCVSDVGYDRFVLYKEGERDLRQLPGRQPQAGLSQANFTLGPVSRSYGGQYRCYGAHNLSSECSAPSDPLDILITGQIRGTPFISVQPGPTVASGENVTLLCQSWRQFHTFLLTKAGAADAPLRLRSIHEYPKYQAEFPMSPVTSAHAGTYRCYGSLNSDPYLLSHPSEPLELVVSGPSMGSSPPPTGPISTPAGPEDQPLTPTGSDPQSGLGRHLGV
T1 sequence (Q8NHL6 24-461): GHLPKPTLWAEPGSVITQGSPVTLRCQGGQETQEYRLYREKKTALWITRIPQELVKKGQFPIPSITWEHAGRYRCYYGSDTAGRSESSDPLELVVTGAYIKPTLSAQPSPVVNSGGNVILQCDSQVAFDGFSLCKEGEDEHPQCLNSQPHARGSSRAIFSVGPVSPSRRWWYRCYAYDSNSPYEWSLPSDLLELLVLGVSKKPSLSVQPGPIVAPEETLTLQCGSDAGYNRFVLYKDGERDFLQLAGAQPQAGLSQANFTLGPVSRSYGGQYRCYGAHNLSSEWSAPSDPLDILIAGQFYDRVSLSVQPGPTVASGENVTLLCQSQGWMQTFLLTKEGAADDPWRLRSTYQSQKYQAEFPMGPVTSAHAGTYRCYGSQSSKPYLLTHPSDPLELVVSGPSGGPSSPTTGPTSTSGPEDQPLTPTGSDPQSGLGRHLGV

B1: humanized anti-ILT2/ILT4 antibody Hz47H6.v2 (antibody, human IgG1, kappa, N297G, V domains shown)
VH: QVQLVQSGAEVKKPGASVKVSCKASGYTFTDYYMNWVRQAPGQRLEWIGDFNPNNAGTTYNQKFEGRVTITVDKSASTAYMELSSLRSEDTAVYYCARGRFYYGSLYSFDYWGQGTLVTVSS
VL: DIQMTQSPSSLSASVGDRVTITCRASGNIHNYLAWYQQKPGKAPKLLIYNAKTLADGVPSRFSGSGSGTDFTLTISSLQPEDFATYYCQHFWTSITFGPGTKVDIKR
By Kd is commonly meant the constant that tells how readily two partners part at equilibrium. The term koff denotes a measure of how fast the partners let go of each other. One may read the kon as a measure of how fast the partners come together. Regarding B1, in the experiment with soluble human ILT2-ECD [1], the Kd was determined as 4 nM, the dissociation rate constant (koff) was 0.0009 s⁻¹ and the kon amounted to 230000 M⁻¹ s⁻¹. Further, in the experiment with soluble human ILT4-ECD [2], the affinity, expressed as Kd, was 2 nM; the koff came out at 0.00018 s⁻¹; the kon is 87000 M⁻¹ s⁻¹.

B2: humanized anti-ILT2/ILT4 antibody Hz64A12 (antibody, human IgG1, kappa, N297G, V domains shown)
VH: EVQLVESGGGLVQPGGSLRLSCAASGFTFNTYAMHWVRQAPGKGLEWVARIRSKSSNYATYYADSVKDRFTISRDDAKNSLYLQMNSLRAEDTAVYYCARDGIYYYDTMYYYAMDYWGQGTLVTVSS
VL: NIVLTQSPDSLAVSLGERATINCRASESVDYYGNSFIYWYQQKPGQPPKLLIYFASNLESGVPDRFSGSGSGTDFTLTISSLQAEDVAVYYCQQNNEDPWTFGGGTKVEIKR
notes: Human IgG1 constant region with G at position 297, human kappa
Turning to B2, in the experiment with soluble human ILT2-ECD [3], binding was characterised by a dissociation constant (Kd) of 1.6 nM, the koff amounted to 0.00014 s⁻¹ and the kon turned out to be 93000 M⁻¹ s⁻¹. In the experiment with soluble human ILT4-ECD [4], this molecule gave a Kd of less than 0.1 nM, a koff of approximately 1e-05 s⁻¹ and an on-rate constant (kon) of 300000 M⁻¹ s⁻¹.

B3: anti-ILT2/ILT4 antibody 47H6 (antibody, V domains shown)
VH: EVQLQQSGPELVKPGASVKISCKASGYTFTDYYMNWVKQSHGKSLEWIGDFNPNNGGTTYNQKFEGKATLTVDKSSNTAYMDLRSLTSEDSAVYYCARGRFYYGSLYSFDYWGQGTTLTVSS
VL: DIQMTQSPASLSASVGETVTITCRASGNIHNYLAWYQQKQGKSPHLLVYNAKTLADGVPSRFSGSGSGTQYSLKINNLQPEDFGSYYCQHFWTSITFGAGTKLDLK
notes: Mouse hybridoma antibody
For the molecule B3, the Kd with soluble human ILT2-ECD [1] is 0.2 nM; with soluble human ILT4-ECD [2] it was 0.2 nM; with soluble human ILT2-ECD [5], 2.1 nM; in the experiment with soluble human ILT4-ECD [6] it was 0.76 nM. The koff in the experiment with soluble human ILT2-ECD [1] was determined as 2.1e-05 s⁻¹; in the experiment with soluble human ILT4-ECD [2] it was 2.1e-05 s⁻¹; in the experiment with soluble human ILT2-ECD [5], 8.6e-05 s⁻¹; with soluble human ILT4-ECD [6] it was 2.8e-05 s⁻¹. For the same molecule, the on-rate (kon) with soluble human ILT2-ECD [1] was found to be 100000 M⁻¹ s⁻¹; with soluble human ILT4-ECD [2], 100000 M⁻¹ s⁻¹; with soluble human ILT2-ECD [5], 42000 M⁻¹ s⁻¹; with soluble human ILT4-ECD [6] it was 37000 M⁻¹ s⁻¹.

B4: anti-ILT2/ILT4 antibody 73C4 (antibody, V domains shown)
VH: AVQLQQSGPELVKPGASVKISCKASGYTFTDYYMNWVKQSHGKSLEWIGNVNPNNGGTSYNQKFKGKATLTVDKSSSTAYMELRSLTSEDSAVYYCARREIYFYGTIYYYAMDYWGQGTSVTVSS
VL: DIVLTQSPASLAVSLGQRATISCRASESVDYYGNSFMYWYQQKPGRPPNLLIYFASNLESGVPARFSGSGSRTDFTLTIDPVEADDAATYYCQQNNEDPWTFGGGTKLEIK
notes: Mouse hybridoma antibody
B4: in the experiment with soluble human ILT2-ECD [7], the Kd is less than 0.1 nM, the koff is approximately 1e-05 s⁻¹ and the on-rate constant (kon) was found to be 31000 M⁻¹ s⁻¹. Moreover, in the experiment with soluble human ILT4-ECD [8], the Kd was less than 0.1 nM, the koff is approximately 1e-05 s⁻¹ and the kon came out at 97000 M⁻¹ s⁻¹.

B5: anti-ILT2/ILT4 antibody 51A1 (antibody, V domains shown)
VH: EVQLVESGGGLVQPKGSLKLSCAASGFTFNTYAMHWVRQAPGKGLEWVARIRSKSSNYATYYADSVKDRFTISRDDSQSMLYLQMNNLKTEDTAMYYCVRDGIYYYGTMYYYAMDYWGQGTSVTVSS
VL: NIVLTQSPASLAVSLGQRATISCRASESVDYYGNSFMYWYQQKPGQPPKLLIYFASNLESGVPARFSGSGSRTDFTLTIDPVEAADAASYYCQQNNEDPWTFGGGTKLEIK
notes: Mouse hybridoma antibody
In the experiment with soluble human ILT2-ECD [5], B5 displayed a dissociation constant Kd of 5.8 nM, a koff of 0.00022 s⁻¹ and a kon of 39000 M⁻¹ s⁻¹. In the experiment with soluble human ILT4-ECD [6], this molecule registered a Kd of 0.2 nM, a koff of 1.4e-05 s⁻¹ and a kon of 68000 M⁻¹ s⁻¹.

B6: anti-ILT2/ILT4 antibody 64A12 (antibody, V domains shown)
VH: EVQLVESGGGLVQPKGSLKLSCAASGFTFNTYAMHWVRQAPGKGLEWVARIRSKSSNYATYYADSVKDRFTISRDDSQSMLYLQMNNLKTEDTAMYYCVRDGIYYYDTMYYYAMDYWGQGTSVTVSS
VL: NIVLTQSPASLAVSLGQRATISCRASESVDYYGNSFIYWYQQKPGQPPKLLIYFASNLESGVPARFSGSGSRTDFTLTIDPVEAADAASYYCQQNNEDPWTFGGGTKLEIK
notes: Mouse hybridoma antibody
Take B6: the Kd with soluble human ILT2-ECD [3], in the experiment with soluble human ILT4-ECD [4], with soluble human ILT2-ECD [7] and in the experiment with soluble human ILT4-ECD [8] was less than 0.1 nM each time. In addition, the koff with soluble human ILT2-ECD [3], with soluble human ILT4-ECD [4], in the experiment with soluble human ILT2-ECD [7] and in the experiment with soluble human ILT4-ECD [8] was approximately 1e-05 s⁻¹ in each case. Besides, the kon is 20000 M⁻¹ s⁻¹ with soluble human ILT2-ECD [3], 82000 M⁻¹ s⁻¹ with soluble human ILT4-ECD [4], 20000 M⁻¹ s⁻¹ in the experiment with soluble human ILT2-ECD [7] and 82000 M⁻¹ s⁻¹ with soluble human ILT4-ECD [8].

B7: anti-ILT2/ILT4 antibody 73D1 (antibody, V domains shown)
VH: AVQLQQSGPELVKPGASVKISCKASGYTFTDYYINWVKQSHGKSLQWIGNVNPNDGGTTYNQKFKGKATLTVDKSSSTAYMELRSLTSEDSAVYYCARREIYFYGTIYYYAMDYWGQGTSVTVSS
VL: DIVLTQSPASLAVSLGQRATISCRASESVDYYGNSFMYWYQQKPGRPPNLLIYFASNLESGVPARFSGSGSRTDFTLTIDPVEADDAATYYCQQNNEDPWTFGGGTKLEIK
notes: Mouse hybridoma antibody; Shares its light chain variable region with 73C4
By EC50 (read off the curve) is commonly meant the concentration giving half of the maximal effect. Turning to B7, the Kd with soluble human ILT2-ECD [1] amounted to 1.8 nM; with soluble human ILT4-ECD [2], 0.74 nM; in the experiment with soluble human ILT2-ECD [5], 1.2 nM; in the experiment with soluble human ILT4-ECD [6] it was 0.18 nM. The koff with soluble human ILT2-ECD [1] is 0.00024 s⁻¹; in the experiment with soluble human ILT4-ECD [2], 0.0003 s⁻¹; with soluble human ILT2-ECD [5] it was 6e-05 s⁻¹; in the experiment with soluble human ILT4-ECD [6], 5.4e-05 s⁻¹. In addition, the kon came out at 150000 M⁻¹ s⁻¹ with soluble human ILT2-ECD [1], 400000 M⁻¹ s⁻¹ with soluble human ILT4-ECD [2], 50000 M⁻¹ s⁻¹ in the experiment with soluble human ILT2-ECD [5] and 300000 M⁻¹ s⁻¹ with soluble human ILT4-ECD [6]. For the same molecule, the results for the “EC50 (read off the curve)” value in experiment [9] and in experiment [10] were approximately 0.7 nM and approximately 0.9 nM, respectively. Moreover, the binding result in the experiment with human ILT4 on cells is reported as “binds”.

These data come from patent US20240025997A1 (NGM BIOPHARMACEUTICALS, published 2024).
